In publication PMC8651678 (Nature Communications, 2021):

Key:
[1] = target: T1, human eIF2B(αβδγε)2 decamer, eIF2Bβ Avi-tagged and biotinylated (human, UniProt Q14232;P49770;Q9UI10;Q9NR50;Q13144, biotin on the Avi tag); experiment: SPR; settings: both partners purified
T1 construct: also called decameric eIF2B; copies: 2 + 2 + 2 + 2 + 2

[2] = target: T2, human eIF2B(αβδγε)2 decamer (no capture tag) (human, UniProt Q14232;P49770;Q9UI10;Q9NR50;Q13144); experiment: fluorescence polarisation; settings: both partners purified
T2 construct: also called decameric eIF2B; eIF2B(αβγδε)2; copies: 2 + 2 + 2 + 2 + 2

B1: Sandfly Fever Sicilian virus (SFSV) NSs protein with a C-terminal 6xHIS tag (natural protein)
chain: MINNNMMNSQYMFDYPAINIDVRCHRLLSSVSYVAYNKFHTHDVSTYEHCEIPLEKLRLGFGRRNSLADFYSLGELPASWGPACYFSSVKPMMYTFQGMASDLSRFDLTSFSRKGLPNVLKALSWPLGIPDCEIFSICSDRFVRGLQTRDQLMSYILRMGDSHSLDECIVQAHKKILQEARRLGLSDEHYNGYDLFREIGSLVCLRLINAEPFDTASSGEALDVRTVIRSYRASDPSTGLTEYGNSLWTPIHSHVDENDESSSDSDF
notes: not shown: 6xHIS, C-terminal, kept
Kd [1]: 30 nM | EC50 [2]: 72 nM
